Laboratory results reported in US20250368978A1, “SQUALENE HOPENE CYCLASE VARIANTS FOR PRODUCING SCLAREOLIDE” (INTERNATIONAL FLAVORS & FRAGRANCES INC., priority 2022, published 2025).
Where a chain is given by its changes, count along the chain named. Numbers in names are those of the source.

B1: WT: wild-type squalene hopene cyclase from Gluconobacter morbifer, SEQ ID NO: 1 / SEQ ID NO: 2 (protein)
chain: MSPADISTKSSSFQRLDNMLPEAVSSACDWLIDQQKPDGHWVGPVESNACMEAQWCLALWFLGQEDHPLRPRLAQALLEMQREDGSWGIYVGADHGDINTTVEAYAALRSMGYAADMPIMAKSAAWIQQKGGLRNVRVFTRYWLALIGEWPWDKTPNLPPEIIWLPDNFIFSIYNFAQWARATMMPLTILSARRPSRPLLPENRLDGLFPEGRENFDYELPVKGEEDLWGRFFRAADKGLHSLQSFPVRRFVPREAAIRHVIEWIIRHQDADGGWGGIQPPWIYGLMALSVEGYPLHHPVLAKAMDALNDPGWRRDKGDASWIQATNSPVWDTMLAVLALHDAGAEDRYSPQMDKAIGWLLDRQVRVKGDWSIKLPDTEPGGWAFEYANDKYPDTDDTAVALIALAGCRHRPEWRERDIEGAISRGVNWLLAMQSSSGGWGAFDKDNNRSILTKIPFCDFGEALDPPSVDVTAHVLEAFGLLGISRNHPSVQKALAYIRSEQERNGAWFGRWGVNYVYGTGAVLPALAAIGEDMTQPYIVRACDWLMSVQQENGGWGESCASYMDINAVGHGVATASQTAWALIGLLAAKRPKDREAIARGCQFLIERQEDGSWTEEEYTGTGFPGYGVGQAIKLDDPSLPDRLLQGAELSRAFMLRYDLYRQYFPVMALSRARRMMKEDASAAA
modifications: Gluconobacter morbifer
B2: V45L + Q54E + V222R + I278T + T326S: GmSHC variant with these substitutions relative to SEQ ID NO: 2 (protein)
chain: B1 chain with V45L, Q54E, V222R, I278T, T326S
modifications: Gluconobacter morbifer
B3: V45L + Q54E + V222K + I278T + T326S: GmSHC variant with these substitutions relative to SEQ ID NO: 2 (protein)
chain: B1 chain with V45L, Q54E, V222K, I278T, T326S
modifications: Gluconobacter morbifer
B4: V45L + Q54E + V222K + I278S + T326S: GmSHC variant with these substitutions relative to SEQ ID NO: 2 (protein)
chain: B1 chain with V45L, Q54E, V222K, I278S, T326S
modifications: Gluconobacter morbifer
B5: V45L + Q54E + I278T + T326S: GmSHC variant, first mutant enzyme which showed formation of sclareolide (protein)
chain: B1 chain with V45L, Q54E, I278T, T326S
B6: V45L + Q54E + M184T + R249R + I278T + T326S: GmSHC variant with these substitutions relative to SEQ ID NO: 2 (protein)
chain: B1 chain with V45L, Q54E, M184T, I278T, T326S
modifications: Gluconobacter morbifer
B7: V45L + Q54E + V222Q + R249R + I278T + T326S: GmSHC variant with these substitutions relative to SEQ ID NO: 2 (protein)
chain: B1 chain with V45L, Q54E, V222Q, I278T, T326S
modifications: Gluconobacter morbifer
B8: V45L + Q54E + R249R + I278T + T326S: GmSHC variant with these substitutions relative to SEQ ID NO: 2; R249R is a silent mutation (protein)
chain: B1 chain with V45L, Q54E, I278T, T326S
modifications: Gluconobacter morbifer
notes: R249R is a silent mutation
B9: V45L + Q54E + V222K + I278A + T326S: GmSHC variant with these substitutions relative to SEQ ID NO: 2 (protein)
chain: B1 chain with V45L, Q54E, V222K, I278A, T326S
modifications: Gluconobacter morbifer
B10: V45L + Q54E + R249R + I278A + T326S: GmSHC variant with these substitutions relative to SEQ ID NO: 2 (protein)
chain: B1 chain with V45L, Q54E, I278A, T326S
modifications: Gluconobacter morbifer
B11: V45L + Q54E + R249R + I278T + T326S + A574A: GmSHC variant with these substitutions relative to SEQ ID NO: 2 (protein)
chain: B1 chain with V45L, Q54E, I278T, T326S
modifications: Gluconobacter morbifer
B12: V45L + Q54E + V222K + R249R + I278T + T326S: GmSHC variant with these substitutions relative to SEQ ID NO: 2 (protein)
chain: B1 chain with V45L, Q54E, V222K, I278T, T326S
modifications: Gluconobacter morbifer
B13: V45L + Q54E + Q178S + V222K + I278S + T326S: GmSHC variant with these substitutions relative to SEQ ID NO: 2 (protein)
chain: B1 chain with V45L, Q54E, Q178S, V222K, I278S, T326S
modifications: Gluconobacter morbifer
B14: V45L + Q54E + Q178S + V222R + 1278T + T326S: GmSHC variant with these substitutions relative to SEQ ID NO: 2 (protein)
chain: B1 chain with V45L, Q54E, Q178S, V222R, I278T, T326S
modifications: Gluconobacter morbifer
B15: V45L + Q54E + V222Q + R249R + I278T + T326S + A683E: GmSHC variant with these substitutions relative to SEQ ID NO: 2 (protein)
chain: B1 chain with V45L, Q54E, V222Q, I278T, T326S, A683E
modifications: Gluconobacter morbifer
B16: V45L + Q54E + V222Q + Y284W + R249R + 1278T + T326S: GmSHC variant with these substitutions relative to SEQ ID NO: 2 (protein)
chain: B1 chain with V45L, Q54E, V222Q, I278T, Y284W, T326S
modifications: Gluconobacter morbifer
B17: V45L + Q54E + V222R + I278T + T326S + R348R: GmSHC variant with these substitutions relative to SEQ ID NO: 2 (protein)
chain: B1 chain with V45L, Q54E, V222R, I278T, T326S
modifications: Gluconobacter morbifer
B18: Q178S: GmSHC mutation Q178S selected by site-saturation mutagenesis (protein)
chain: B1 chain with Q178S
modifications: Gluconobacter morbifer
notes: GmSHC mutation Q178S selected by site-saturation mutagenesis

Experiment: SHC variant screening reactions: conversion of HFA to sclareolide by freeze-dried whole cells, GC analysis
Assay type: biochemical, Gluconobacter morbifer
Details: 10 mg/mL HFA, 100% enzyme loading
Method: SHC Variant Enzyme Expression. Wild-type and the GmSHC variants of Table 5 were individually cloned into pET28a(+). These DNA constructs were transformed into Lemo21 (DE3) E. coli and plated onto agar plates containing Kanamycin. These were incubated overnight at 37° C. A single bacterial colony was picked and used to inoculate 10 mL LB+Kanamycin in a 50 mL falcon tube. This primary culture was incubated overnight at 37° C. with agitation. These cultures (10 mL) were used to inoculate 1L LB+Kanamycin in a shake flask, which was subsequently incubated at 37° C. at 180 rpm for about 4 hours. Protein expression was then induced with the addition of 0.4 mM IPTG and 0.2 mM L-rhamnose. The incubator temperature was lowered to 25° C. and the cultures further incubated at 180 rpm overnight. The next day, the cultures were centrifuged at 4000 rpm for 10 minutes and the supernatant discarded. Cell pellets were resuspended in 0.1 M Potassium phosphate buffer pH 7.4 and exposed to 1 round of freeze/thawing before lyophilization and then use in the reaction assay.
SHC Variant Screening Reactions. Sodium citrate buffer 0.2 M, pH 5 was prepared and 500 μL of this buffer was added to freeze-dried whole cells of each variant (from 1 L shake flask fermentation of E. coli transformed with desired variant plasmid). The results were obtained with an enzyme loading of 50% (w/w). Subsequently, HFA (20 mg/mL) was added to the buffer/enzyme mix. The reactions were incubated at 25° C. with agitation for 72 hours. To stop the reaction and extract the products, a 2X volume of 3:2, heptane: isopropanol was added to each reaction. These were then incubated at 37° C. for 30 minutes with agitation to mix thoroughly. The reactions were centrifuged for 10 minutes at 4000 rpm to pellet any cellular material. The upper organic layer was then removed and placed in a clean gas chromatography (GC) vial.
GC Analysis Method. A GC analytical method was used to detect each of the starting materials and products used in the screening reactions. Due to the volume of samples generated, a fast method was developed with a run time of only 4.5 minutes.
No metal ions were included in the reaction.
Further analysis was conducted to identify one or more optimal SHC enzymes. In particular, substrate loading was increased to 20 mg/mL and incubation with a reduced enzyme loading (50%).

With B1 the “conversion of HFA to sclareolide” value was “did not show any conversion”.

Same assay, conditions: 10 mg/mL HFA, 100% enzyme loading; based on % peak area; relative to V45L+Q54E+I278T+T326S variant; no metal ions

Going from B2 to B3, the “Fold improvement (sclareolide production)” value rises from 4.2 Fold to 5.4 Fold.

Compared with B4, B6 is lower in “Fold improvement (sclareolide production)” value: 7.4 Fold for the first, 3.3 Fold for the second.

First: B7
Second: B8
The “Fold improvement (sclareolide production)” value of the first is lower: 3.9 Fold for the first, 4.2 Fold for the second.

For B5, the “Fold improvement (sclareolide production)” value was -0- Fold.

Same assay, conditions: 20 mg/mL HFA, 50% enzyme loading; relative to initial mutant

Going from B2 to B3, the “Fold improvements (sclareolide production)” value (from here on “Fold improvements”) falls from 27 Fold to 12 Fold.

First: B4
Second: B5
The “Fold improvements” value of the first is higher: 28.4 Fold for the first, 0 Fold for the second.

Compared with B7, B8 is lower in “Fold improvements” value: 30.3 Fold for the first, 7 Fold for the second.

Going from B9 to B10, the “Fold improvements” value rises from 20.4 Fold to 25.6 Fold.

First: B11
Second: B12
The “Fold improvements” value of the first is lower: 27 Fold for the first, 33.2 Fold for the second.

Going from B13 to B14, the “Fold improvements” value rises from 37.3 Fold to 43.8 Fold.

Going from B15 to B16, the “Fold improvements” value rises from 44.6 Fold to 46.2 Fold.

For B17, the “Fold improvements” value was 60 Fold.

Experiment: Effect of single mutations of GmSHC on activity (site saturation mutagenesis / summary of variants)
Assay type: biochemical, Gluconobacter morbifer
Details: single position in GmSHC, SEQ ID NO: 2 numbering
Description: Three different approaches were taken to generate SHC variants: rational mutagenesis (site-directed mutagenesis), semi-rational mutagenesis (via site-saturation library), and random mutagenesis (error prone PCR). Variants were expressed in a heterologous system and screened by GC.
To improve the conversion of HFA to sclareolide, GmSHC was mutated at one or more of the residues at position 45, 54, 178, 184, 222, 278, 284, 326, 348, 574 and 683 of SEQ ID NO: 2. Silent mutations at positions 249, 348, and 574 identified in an error prone library, were also introduced in the GmSHC of SEQ ID NO: 2.

For B18, the “effect of mutation on activity” value was “improving activity”.
